Residue numbers refer to the chain shown, from its start. Numbers in names are those of the source.
What was measured:
[1] = test system: EGFR-overexpressing human tumor cell line H1573; assay: Cytotoxicity assay in H1573 cells; type: cell-based; settings: cysteine variants conjugated to VC-MMAF, Cell TiterGlo at 70 hours, read-out: IC50
Method: Cell killing was assessed by measuring viability of the EGFR-overexpressing human tumor cell line H1573 following exposure to the cysteine variant-cytotoxin conjugates. Cells were plated in black-well, clear bottomed, tissue culture-treated plates (Falcon 353219) at 7000/well in 100 μL/well of phenol red free RPMI media (Gibco 11835-030) with 5% fetal bovine serum (Gibco). Cells were allowed to attach overnight at 37° C. in a humidified 5% CO2 atmosphere. Medium was aspirated from 96-well plate and cells were treated with 50 uL of fresh media and 50 uL of 2× inhibitor made up in fresh media. Cell viability was determined by an endpoint assay with Cell TiterGlo (Promega) at 70 hours. IC50 values were determined by fitting data to the equation for a sigmoidal dose response with variable slope using GraphPad Prism 5 (GraphPad Software). Table 11 reports IC50 values obtained from analysis of the CellTiter Glo data.
Conjugates consisting of ECB147 cysteine variants, 83v2-cys, or Tencon-cys linked to a cytotoxic tubulin inhibitor from the auristatin family (FIG. 2) were tested for target-dependent cytotoxicity in cancer cells. The inhibitor was linked to the cysteine-containing protein via a non-cleavable PEG4 linker or an enzyme-cleavable valine-citrulline or valine-lysine linker. Cell killing was assessed by measuring viability of the EGFR-overexpressing human tumor cell lines H1573 and A431 as well as the EGFR-negative tumor cell line MDA-MB-435 following exposure to the protein-cytotoxin conjugates using the procedure described in Example 4.

[2] = Thermal stability of cysteine-NEM conjugates by DSC; type: physicochemical; settings: for First Scan Tm: DSC 25-100 °C, 1 °C per minute; for Second Scan Tm: second identical scan
Method: The thermal stability of cysteine-NEM conjugates was assessed by differential scanning calorimetry (DSC). The only the conjugates tested were those determined to express at high levels, conjugate efficiently, and retain EGFR binding. Additionally, cysteine variants within the BC and FG loops were excluded. Stability data was generated by heating a 400 μL aliquot of the variant from 25° C. to 100° C. at a scan rate of 1° C. per minute in a VP-DSC instrument (MicroCal). A second identical scan was completed on the sample in order to assess the reversibility of thermal folding/unfolding. Data was fitted to a 2-state unfolding model in order to calculate the melting temperature (Table 10).

[3] = Analytical size exclusion chromatography (percent monomer); type: physicochemical; settings: NEM-conjugated cysteine variants; SEC, Abs280 monomer region 5.5-6 minutes vs oligomer region 4-5.3 minutes
Method: Size exclusion chromatography was used to determine the aggregation state of the FN3 domains binding EGFR. Aliquots (10 μL) of each purified FN3 domain were injected onto a Superdex 75 5/150 column (GE Healthcare) at a flow rate of 0.3 mL/min in a mobile phase of PBS pH 7.4. Elution from the column was monitored by absorbance at 280 nm.
The percent monomer for each protein was determined by integrating the Abs280 signal and comparing the peak in the monomer region (5.5-6 minutes) to the peaks in the oligomer region (4-5.3 minutes).

B1: L32C: cysteine variant of P54AR4-83v2; NEM and VC-MMAF conjugates (conjugate)
chain: LPAPKNLVVSEVTEDSARLSWDDPWAFYESFCIQYQESEKVGEAIVLTVPGSERSYDLTGLKPGTEYTVSIYGVHNVYKDTNMRGLPLSAIFTT
modifications: left off: small tags and cut ends
notes: cysteine variant of P54AR4-83v2; NEM and VC-MMAF conjugates
IC50 [1]: 2.92 nM | First Scan Tm [2]: 71 °C | Second Scan Tm [2]: 70 °C | Percent monomer [3]: 100%

B2: D15C: cysteine variant of P54AR4-83v2 (SEQ ID NOS: 193 and 231); NEM and VC-MMAF conjugates (conjugate)
chain: MLPAPKNLVVSEVTECSARLSWDDPWAFYESFLIQYQESEKVGEAIVLTVPGSERSYDLTGLKPGTEYTVSIYGVHNVYKDTNMRGLPLSAIFTT
modifications: NEM or vcMMAF conjugate; EGFR binding FN3 domain
notes: NEM and VC-MMAF conjugates
IC50 [1]: 0.33 nM | First Scan Tm [2]: 73 °C | Second Scan Tm [2]: 73 °C | Percent monomer [3]: 97%

B3: S16C: cysteine variant of P54AR4-83v2 (SEQ ID NOS: 194 and 232); NEM and VC-MMAF conjugates (conjugate)
chain: B2 chain with C16D, S17C
modifications: NEM or vcMMAF conjugate; EGFR binding FN3 domain
notes: NEM and VC-MMAF conjugates
IC50 [1]: 0.75 nM | First Scan Tm [2]: 68 °C | Second Scan Tm [2]: 68 °C | Percent monomer [3]: 75%

B4: K40C: cysteine variant of P54AR4-83v2 (SEQ ID NOS: 199 and 237); NEM and VC-MMAF conjugates (conjugate)
chain: B2 chain with C16D, K41C
modifications: NEM or vcMMAF conjugate; EGFR binding FN3 domain
notes: NEM and VC-MMAF conjugates
IC50 [1]: 0.73 nM | First Scan Tm [2]: 70 °C | Second Scan Tm [2]: 70 °C | Percent monomer [3]: 97%

B5: S20C: cysteine variant of P54AR4-83v2 (SEQ ID NOS: 195 and 233); NEM and VC-MMAF conjugates (conjugate)
chain: B2 chain with C16D, S21C
modifications: NEM or vcMMAF conjugate; EGFR binding FN3 domain
notes: NEM and VC-MMAF conjugates
IC50 [1]: 0.36 nM | First Scan Tm [2]: 70 °C | Second Scan Tm [2]: 70 °C | Percent monomer [3]: 94%

B6: S38C: cysteine variant of P54AR4-83v2 (SEQ ID NOS: 198 and 236); NEM and VC-MMAF conjugates (conjugate)
chain: B2 chain with C16D, S39C
modifications: NEM or vcMMAF conjugate; EGFR binding FN3 domain
notes: NEM and VC-MMAF conjugates
IC50 [1]: 0.76 nM | First Scan Tm [2]: 65 °C | Second Scan Tm [2]: 65 °C | Percent monomer [3]: 93%

B7: Q34C: cysteine variant of P54AR4-83v2 (SEQ ID NOS: 197 and 235); NEM and VC-MMAF conjugates (conjugate)
chain: B2 chain with C16D, Q35C
modifications: NEM or vcMMAF conjugate; EGFR binding FN3 domain
notes: NEM and VC-MMAF conjugates
IC50 [1]: 0.74 nM | First Scan Tm [2]: 75 °C | Second Scan Tm [2]: 74 °C | Percent monomer [3]: 97%

B8: S30C: cysteine variant of P54AR4-83v2 (SEQ ID NOS: 196 and 234); NEM and VC-MMAF conjugates (conjugate)
chain: B2 chain with C16D, S31C
modifications: NEM or vcMMAF conjugate; EGFR binding FN3 domain
notes: NEM and VC-MMAF conjugates
IC50 [1]: 0.78 nM | First Scan Tm [2]: 71 °C | Second Scan Tm [2]: 71 °C | Percent monomer [3]: 94%
